Test results published in PMC8844856, “Structural basis of cyclic oligoadenylate binding to the transcription factor Csa3 outlines cross talk between type III and type I CRISPR systems” (The Journal of Biological Chemistry, 2022).
Entries after “also recorded” stand apart in the source; their conditions may differ.

Assays:
His6-Csa3Sso (WT) [1] = target: T1, His6-Csa3Sso (WT) (Saccharolobus solfataricus, UniProt Q97Y88); experiment: Microscale thermophoresis (MST) binding of cOA ligands to wildtype Csa3Sso; conditions: MST
T1 construct: made in house; host or cells: E. coli BL21(DE3)-pLysS
T1 sequence (Q97Y88 1-237): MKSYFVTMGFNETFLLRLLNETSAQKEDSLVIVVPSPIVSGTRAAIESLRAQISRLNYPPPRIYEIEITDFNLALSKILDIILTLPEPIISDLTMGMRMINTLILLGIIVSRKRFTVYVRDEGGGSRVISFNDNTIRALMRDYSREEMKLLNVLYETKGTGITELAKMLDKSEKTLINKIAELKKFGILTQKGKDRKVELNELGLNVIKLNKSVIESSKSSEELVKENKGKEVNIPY
Procedure: The ligand-binding specificity of Csa3Sso (WT) and the role of Csa3Sso residues in ligand binding were determined by microscale Thermophoresis (MST). Wildtype or mutant His6-Csa3Sso (200 nM) was fluorescently labeled in 2× binding buffer (10 mM Na/K phosphate, pH 5.8, 10 mM MgCl2, 25 mM NaCl, and 0.05% Tween 20) using 100 nM RED-Tris NTA His-Tag labeling dye (Nanotemper Technologies, Inc) and incubated in the dark at room temperature for 30 min. Two millimolar stocks of synthetic ligands including cA3, cA4, and cA6 (Biolog Life Science Institute) or linear ribonucleotide 5′-rCrArArArA-3′ (Bio-Synthesis Inc) were serially diluted in a 1:1 ratio with nuclease-free water. The labeled proteins were then mixed with ligands in a 1:1 ratio. Only cA4 was used in the MST experiments with the Csa3Sso mutants (2 mM stocks of cA4 were used for F10A, F14A, G96A, and R98A mutants, and 20 μM stocks were used for E122A and E122Q mutants). The mixtures of proteins and ligands were incubated in the dark at room temperature for 30 min. The precipitated material was removed by centrifugation at 6000 rpm for 5 min. The supernatants were then loaded into Monolith NT.115 Series Premium capillaries in triplicate, and the thermophoresis was detected with 40% excitation power and 40% IR-laser power for an on-time of 20 s at 25 °C.
(§1) The binding affinities of oligonucleotides and PCas4a to Csa3Sso (WT and mutants) were analyzed according to the law of mass action in a standard fitting mode of MO.Affinity analysis software (version 2.3).

His6-Csa3Sso (WT) [2] = target: T1, His6-Csa3Sso (WT); experiment: MST binding of PCas4a promoter DNA to Csa3Sso with or without cOAs; conditions: 50-fold excess of cOA (25 μM)
Procedure: The MST experiment and data analysis for ligand-induced changes in Csa3Sso binding affinity with PCas4a was performed as mentioned above except for the following: 1 μM of His6-Csa3Sso (WT) was fluorescently labeled in 2× binding buffer with 40 nM RED-Tris NTA His-Tag labeling dye in the absence or presence of cA4 or cA6. The labeling mixtures were incubated in the dark at room temperature for 30 min. A 50 μM stock of PCas4a was serially diluted in 1:1 ratios with nuclease-free water. The labeled proteins ± ligands were then mixed with diluted PCas4a in a 1:1 ratio and incubated in the dark at room temperature for 30 min. The supernatants obtained after removal of precipitated material were then loaded into Monolith NT.115 Series Premium capillaries in triplicate, and the thermophoresis was detected with 100% excitation power and 60% IR-laser power for an on-time of 20 s at 25 °C.
as §1

Csa3Sso WT [3] = target: T2, Csa3Sso WT (Saccharolobus solfataricus P2, UniProt Q97Y88 1-237); experiment: EMSA; no cA4; faint shifted band; MST buffer not given in the material; Cy5 EMSA: 50 nM probe, 0.5-25 uM protein, 5% acrylamide TBE, 4 C; agarose EMSA: 2% TBE, room temperature; crystals: 20 mM; conditions: protein: recombinant; tags: N-terminal His6; chain copies: 2; label: 5' Cy5 on top strand; blunt
T2 sequence: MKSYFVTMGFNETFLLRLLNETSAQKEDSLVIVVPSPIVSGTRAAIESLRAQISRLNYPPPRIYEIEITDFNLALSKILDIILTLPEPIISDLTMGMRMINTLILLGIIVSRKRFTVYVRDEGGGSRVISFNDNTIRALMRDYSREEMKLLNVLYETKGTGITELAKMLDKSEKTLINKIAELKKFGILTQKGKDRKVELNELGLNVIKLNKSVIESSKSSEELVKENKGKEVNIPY

[4] = target: the molecule itself; experiment: SEC; Superdex 200 16/70 gel filtration in buffer F (20 mM Tris-HCl pH 8.0, 50 mM NaCl), against globular standards
[5] = target: the molecule itself; experiment: AUC; sedimentation velocity, 20 °C, 40,000 rpm, 10 mM Na/KPO4 pH 5.8, 10 mM NaCl, 25 mM MgCl2; without cA4
Csa3Sso WT [6] = target: T2, Csa3Sso WT; experiment: MST; no cOA; precipitate removed; MST buffer not given in the material; Cy5 EMSA: 50 nM probe, 0.5-25 uM protein, 5% acrylamide TBE, 4 C; agarose EMSA: 2% TBE, room temperature; crystals: 20 mM; conditions: protein: recombinant; tags: N-terminal His6; chain copies: 2; blunt
Csa3Sso WT [7] = target: T2, Csa3Sso WT; experiment: MST; only nonspecific signal at >=250 uM; MST buffer not given in the material; Cy5 EMSA: 50 nM probe, 0.5-25 uM protein, 5% acrylamide TBE, 4 C; agarose EMSA: 2% TBE, room temperature; crystals: 20 mM; conditions: protein: recombinant; tags: N-terminal His6; chain copies: 2; cyclic; no ends
Csa3Sso WT [8] = target: T2, Csa3Sso WT; experiment: MST; apparent Kd; MST buffer not given in the material; Cy5 EMSA: 50 nM probe, 0.5-25 uM protein, 5% acrylamide TBE, 4 C; agarose EMSA: 2% TBE, room temperature; crystals: 20 mM; conditions: protein: recombinant; tags: N-terminal His6; chain copies: 2; cyclic; no ends

Molecule: Nc1ncnc2c1ncn2[C@@H]1O[C@@H]2COP(=O)(O)O[C@H]3[C@@H](O)[C@H](n4cnc5c(N)ncnc54)O[C@@H]3COP(=O)(O)O[C@H]3[C@@H](O)[C@H](n4cnc5c(N)ncnc54)O[C@@H]3COP(=O)(O)O[C@H]2[C@H]1O [cA3]
- specific binding to His6-Csa3Sso (His6-Csa3Sso (WT) [1]): lack of Csa3Sso binding

Molecule: Nc1ncnc2c1ncn2[C@@H]1O[C@@H]2COP(=O)(O)O[C@H]3[C@@H](O)[C@H](n4cnc5c(N)ncnc54)O[C@@H]3COP(=O)(O)O[C@H]3[C@@H](O)[C@H](n4cnc5c(N)ncnc54)O[C@@H]3COP(=O)(O)O[C@H]3[C@@H](O)[C@H](n4cnc5c(N)ncnc54)O[C@@H]3COP(=O)(O)O[C@H]3[C@@H](O)[C@H](n4cnc5c(N)ncnc54)O[C@@H]3COP(=O)(O)O[C@H]3[C@@H](O)[C@H](n4cnc5c(N)ncnc54)O[C@@H]3COP(=O)(O)O[C@H]2[C@H]1O [cA6]
- specific binding to His6-Csa3Sso (His6-Csa3Sso (WT) [1]): only cA4 exhibited a specific low micromolar binding
- effect of excess cOA on PCas4a binding affinity of Csa3Sso (His6-Csa3Sso (WT) [2]): no significant effect; also recorded: did not significantly change

B1: Cy5-PCas4a (dsDNA)
DNA 1: AAAGAATTCCCGAATTTACTAGGGAT
DNA 2: ATCCCTAGTAAATTCGGGAATTCTTT
modifications: 5' amino-modified top strand
- binding result (Csa3Sso WT [3]): binds

B2: Saccharolobus solfataricus Csa3 (Csa3Sso), N-terminally His6-tagged, wildtype (natural protein, UniProt Q97Y88 1-237, looked up)
chain: MKSYFVTMGFNETFLLRLLNETSAQKEDSLVIVVPSPIVSGTRAAIESLRAQISRLNYPPPRIYEIEITDFNLALSKILDIILTLPEPIISDLTMGMRMINTLILLGIIVSRKRFTVYVRDEGGGSRVISFNDNTIRALMRDYSREEMKLLNVLYETKGTGITELAKMLDKSEKTLINKIAELKKFGILTQKGKDRKVELNELGLNVIKLNKSVIESSKSSEELVKENKGKEVNIPY
notes: Csa3 (CRISPR Apern 3, a Csa3a homolog) of Saccharolobus solfataricus strain P2, Sso1445, UniProtKB Q97Y88; full-length; the His6-tagged construct has 248 a.a; (MW theor 28.1 kDa); Synthetic gene in pBB75 (or pET21b); also called His6-Csa3Sso; Csa3Sso (WT); source: E. coli BL21(DE3)-pLysS, purified (lysate heated at 65 °C, HisTrap, Mono-Q flow-through, Cibacron Blue, Superdex 200); not shown: …
- stoichiometry N [4]: 2

B3: Csa3Sso-R98A mutant, N-terminally His6-tagged (natural protein, Saccharolobus solfataricus, UniProt Q97Y88 1-237, looked up)
chain: MKSYFVTMGFNETFLLRLLNETSAQKEDSLVIVVPSPIVSGTRAAIESLRAQISRLNYPPPRIYEIEITDFNLALSKILDIILTLPEPIISDLTMGMAMINTLILLGIIVSRKRFTVYVRDEGGGSRVISFNDNTIRALMRDYSREEMKLLNVLYETKGTGITELAKMLDKSEKTLINKIAELKKFGILTQKGKDRKVELNELGLNVIKLNKSVIESSKSSEELVKENKGKEVNIPY
notes: Csa3 of Saccharolobus solfataricus strain P2, Sso1445, UniProtKB Q97Y88; full-length, with R98A; Synthetic gene in pBB75; source: E. coli BL21(DE3)-pLysS, purified (lysate heated at 65 °C, HisTrap, Mono-Q flow-through, Cibacron Blue, Superdex 200); not shown: His6, N-terminal, kept
- stoichiometry N [5]: 2

B4: PCas4a (dsDNA)
DNA 1: AAAGAATTCCCGAATTTACTAGGGAT
DNA 2: ATCCCTAGTAAATTCGGGAATTCTTT
- Kd (Csa3Sso WT [6]): 1.62 ± 0.17 µM

B5: cA3 (ssRNA)
RNA: AAA
modifications: cyclic tri-adenylate
- binding result (Csa3Sso WT [7]): no binding

B6: cA4 (ssRNA)
RNA: AAAA
modifications: cyclic, 3'-5' linked tetra-adenylate (CHEBI:142457)
- Kd (Csa3Sso WT [8]): 5.8 ± 0.03 µM
